From patent US8016811B2, “Method for transdermal delivery of permeant substances” (priority 2003, dated 2011)

Assay: Serum insulin concentration profile in hairless rats after transdermal patch over micropores or subcutaneous dosing
Assay type: in vivo
From the text: This example illustrates the ability of the microporation system to mimic the delivery of a subcutaneous infusion of insulin. Hairless rats were purchased and dosed with insulin in accordance with the terms set forth below. The insulin concentration within the serum of the rats was then monitored at given time intervals to provide a blood serum insulin concentration profile.
Three hairless rats were given a 1 U/kg dose of insulin by way of subcutaneous administration. The concentration of insulin in the rats' blood serum was monitored. The average insulin blood serum concentration for the three rats was determined.
Five hairless rats were purchased from Charles River. Jugular vein cannulation was performed the day before the experiment to allow the animals recovering from the surgery.
The experiment was conducted as follows. The rats were anesthetized immediately before the skin treatment, which consisted of cleaning the abdomen side of the rat skin with an alcohol swab. The abdomen was allowed to air dry.
After the abdomen dried, the microporation system was placed longitudinally, and the bottom corners marked, on the cleaned skin site. The cleaned skin site was then microporated using the microporation system. Following microporation, the microporation system was removed and a liquid reservoir patch was placed on the microporated area. The patch was then filled with a 50 IU/ml dose of insulin and a time-zero sample was immediately taken. The remaining samples were taken according to the preset schedule.
After the sample at the 4th hour was taken, the rats were anesthetized to retrieve the donor solution from the liquid reservoir patch. Blood sampling continued until the 8th hour.
Afterward, the test was conducted again, however the patch applied was 2 cm^2 in area. Lastly, the test was performed for a third time, with the patch having a size of 3 cm^2.
Three hairless rats were prepared and tested in accordance with the procedure set forth in Test 1 above. However, for this test, a second generation planar microporation system was used to create the micropores in the abdomen of each rat. In addition, the transdermal patch contained a 50 IU/ml dose of insulin when applied to the microporated area of the skin of each rat.
This test was designed to determine any differences in the types of transdermal patches used to deliver insulin through the micropores. Five hairless rats were prepared and tested in accordance with the procedure set forth in Test 1 above. Following microporation of each rat, an early prototype liquid reservoir patch was applied to two of the rats, while a second generation transdermal patch was used to deliver insulin in the remaining three rats. Each patch contained a 50 IU/ml dose of insulin when applied to the microporated area of the skin of each rat.
A number of rats were prepared in accordance with the procedure set forth in Test 1 above. For those rats that had delivery openings formed on their abdomen, the delivery openings were formed using an early prototype microporation system. Insulin was delivered to the rats using a second generation delivery patch containing the desired concentration of insulin.
The delivery patch was applied to the rats' abdomen without microporation. The rats in this control group were given a […] concentration dose of insulin.
For the other rats in this test, the delivery patch contained insulin in concentrations of 10 IU/ml (6 rats), 25 IU/ml (6 rats), […] or 100 IU/ml (6 rats). The insulin serum concentration was monitored in each of the rats at various intervals of time. The average concentration of the rats for that particular insulin concentration (and whether delivery openings were formed or not) was determined and an insulin serum concentration profile was developed.

insulin
average insulin serum concentration, transdermal through micropores versus subcutaneous (50 IU/ml patch for 4 hours (5 rats) vs 1 U/kg subcutaneous (3 rats), FIG. 5): higher average concentration
duration of higher average insulin serum concentration, transdermal versus subcutaneous (50 IU/ml patch for 4 hours vs 1 U/kg subcutaneous, FIG. 5): longer duration
insulin serum concentration, planar array microporation system versus step and repeat microporation system (50 IU/ml patch for 4 hours, FIG. 7): slightly lower
average insulin serum concentration, change with patch size 1 cm^2 to 2 cm^2 (50 IU/ml patch, 4 rats, FIG. 6): roughly doubled
average insulin serum concentration, change with patch size 2 cm^2 to 3 cm^2 (50 IU/ml patch, 4 rats, FIG. 6): roughly doubled
average insulin concentration, early prototype liquid reservoir patch versus second generation transdermal patch (50 IU/ml patch, FIG. 8): very similar
average insulin serum concentration, 100 IU/ml dose in comparison to other doses (microporated, 100 IU/ml patch, 6 rats, FIG. 9): very high
average insulin serum concentration, 50 IU/ml dose versus 25 IU/ml dose (microporated, FIG. 9): not much difference
average insulin serum concentration, rats without delivery openings (patch on non-microporated abdomen, 3 rats, FIG. 9): very low
